Reference: article PMC6956826

Biological target: SNID2 peptide of the CD3 zeta chain
Assay: ITC

Substance: HIV-2 consensus Nef
- Kd: 12 µM
- dH: -12.3 kcal/mol
- stoichiometry N: 1.08

Substance: SIVmac239 Nef core domain harboring the C-terminal region (domain or fragment)
- dH: -14.2 kcal/mol
- stoichiometry N: 1.05
